Measured values from patent US20110059015A1 (CONSEJO SUPERIOR DE INVESTIGACIONES CIENTIFICAS CSIC, published 2011).

Assays:
[1] = target: gp120 of HIV-1 MN strain (on virus) (HIV-1 (MN), UniProt P05877 32-513); assay: cell-based or functional assay
BSA [2] = target: T1, BSA (Bos taurus, UniProt P02769); assay: ELISA, soluble Fab on BSA coated wells
T1 construct: commercial serum albumin; also called bovine serum albumin

BSA [3] = target: T1, BSA; assay: ELISA, soluble Fab of the shuffled HC/LC pair on BSA coated wells
BSA [4] = target: T1, BSA; assay: ELISA, soluble Fab on BSA coated wells; remark: listed apart in the source
[5] = target: gp120 of HIV-1 SF-2 strain (on virus) (HIV-1 (SF-2), UniProt P03378 32-509); assay: cell-based or functional assay
[6] = target: gp120 of HIV-1 RF strain (on virus) (HIV-1 (RF), UniProt P04579 32-519); assay: cell-based or functional assay
BSA [7] = target: T1, BSA; assay: ELISA, soluble mutant Fab on BSA coated wells
BSA [8] = target: T1, BSA; assay: ELISA, soluble mutant Fab on BSA coated wells; remark: listed apart in the source
BSA [9] = target: T1, BSA; assay: ELISA, Fab titration on BSA coated wells

T1 sequence (P02769 25-607 limits assumed): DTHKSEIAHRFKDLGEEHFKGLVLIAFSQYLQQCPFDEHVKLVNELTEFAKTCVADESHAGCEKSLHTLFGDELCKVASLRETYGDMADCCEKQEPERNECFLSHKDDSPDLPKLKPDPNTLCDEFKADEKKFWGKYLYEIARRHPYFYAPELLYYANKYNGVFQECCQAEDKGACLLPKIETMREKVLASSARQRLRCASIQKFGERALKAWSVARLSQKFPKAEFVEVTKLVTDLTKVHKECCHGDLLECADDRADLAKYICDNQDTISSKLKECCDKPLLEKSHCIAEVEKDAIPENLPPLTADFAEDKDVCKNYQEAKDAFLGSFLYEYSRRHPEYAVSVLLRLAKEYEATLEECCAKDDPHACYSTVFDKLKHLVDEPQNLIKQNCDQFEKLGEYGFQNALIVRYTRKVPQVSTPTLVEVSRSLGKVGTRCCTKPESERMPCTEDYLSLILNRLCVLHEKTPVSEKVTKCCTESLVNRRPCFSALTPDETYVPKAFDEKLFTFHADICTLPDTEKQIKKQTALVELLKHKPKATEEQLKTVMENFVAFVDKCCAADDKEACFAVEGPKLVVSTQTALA

B1: Fab S20 (Fab, V domains shown)
VH: LESGGGVVQPGRSLRLSCSASGFSFRDYAMHWVRQAPGKGLEWVAFIWFDGSNERYADSVKGRFTITRDNPKNTLYLQMNSLRVEDTAVYYCVRRGGSILTGFHLDYWGQGTLVTVSS
VL: ELTQSPSSLSASVGDRVTITCRASQGIRDDLGWYQQKPGKAPKRLIYAASNLQSGVPSRFSGGGSGTEFTLTISSLQPEDFATYYCLQHNSYPLTFGGGTKVEIKR
notes: also called IgG Fab S20
For B1, the “% neutralisation of HIV-1 MN, NPA in MT-4 cells, at 20 µg/ml Fab” value [1] was 90% and the binding result (BSA [2]) was “no binding (tested: not given on the sheet)”.

B2: S20/S8 (Fab, V domains shown)
VH: LESGGGVVQPGRSLRLSCSASGFSFRDYAMHWVRQAPGKGLEWVAFIWFDGSNERYADSVKGRFTITRDNPKNTLYLQMNSLRVEDTAVYYCVRRGGSILTGFHLDYWGQGTLVTVSS
VL: ELTQSPSSLSASVGDRVTITCRASQGIRDDLGWYQQKPGKAPKRLIYAASNLQSGVPSRFSGGGSGTEFTLTISSLQPEDFATYYCLQHNSYPLTFGGGTKVEIKR
notes: also called S20 heavy chain paired with S8 light chain
B2: no binding (tested: not given on the sheet) (BSA [3]).

B3: Fab S8 (Fab, V domains shown)
VH: LESGGGLVKPGGSLRLSCAASGFTFSSYAMHWVRQAPGKGLEWVAFIWFDGSNERYADSVKGRFTITRDNPKNTLYLQMNSLRVEDTAVYYCVRRGGSILTGFHLDYWGQGTLVTVSS
VL: ELTQSPSSLSASVGDRVTITCRASQGIRDDLGWYQQKPGKAPKRLIYAASNLQSGVPSRFSGGGSGTEFTLTISSLQPEDFATYYCLQHNSYPLTFGGGTKVEIKR
notes: also called IgG Fab S8; S8 Fab
For B3, the binding result (BSA [4]) was “no binding (tested: not given on the sheet)”, the “% neutralisation of HIV-1 MN, NPA in MT-4 cells, at 20 µg/ml Fab” value [1] was 90% and the “% neutralisation, IRA in MT-2 cells, at 1 µg/ml Fab S8” value (“% neutralisation … at 1 µg/ml Fab S8” for short) [1] was 50%. The “% neutralisation, IRA in MT-2 cells, at 10 µg/ml Fab S8” value (“% neutralisation … at 10 µg/ml Fab S8” for short) [1] was over 90%, the “% neutralisation … at 1 µg/ml Fab S8” value [5] was 50% and the “% neutralisation … at 10 µg/ml Fab S8” value [5] was over 90%. For the same binder, the “% neutralisation … at 1 µg/ml Fab S8” value [6] was 50% and the “% neutralisation … at 10 µg/ml Fab S8” value [6] was over 90%.

B4: Fab S8 HCDR3 mutant Arg95 to Asp (Fab, V domains shown)
VH: LESGGGLVKPGGSLRLSCAASGFTFSSYAMHWVRQAPGKGLEWVAFIWFDGSNERYADSVKGRFTITRDNPKNTLYLQMNSLRVEDTAVYYCVRDGGSILTGFHLDYWGQGTLVTVSS
VL: ELTQSPSSLSASVGDRVTITCRASQGIRDDLGWYQQKPGKAPKRLIYAASNLQSGVPSRFSGGGSGTEFTLTISSLQPEDFATYYCLQHNSYPLTFGGGTKVEIKR
B4: no binding (tested: not given on the sheet) (BSA [7]).

B5: mutant Fab S895K (Fab, V domains shown)
VH: LESGGGLVKPGGSLRLSCAASGFTFSSYAMHWVRQAPGKGLEWVAFIWFDGSNERYADSVKGRFTITRDNPKNTLYLQMNSLRVEDTAVYYCVRKGGSILTGFHLDYWGQGTLVTVSS
VL: ELTQSPSSLSASVGDRVTITCRASQGIRDDLGWYQQKPGKAPKRLIYAASNLQSGVPSRFSGGGSGTEFTLTISSLQPEDFATYYCLQHNSYPLTFGGGTKVEIKR
B5: no binding (tested: not given on the sheet) (BSA [7]).

B6: mutant Fab S2095K (Fab, V domains shown)
VH: LESGGGVVQPGRSLRLSCSASGFSFRDYAMHWVRQAPGKGLEWVAFIWFDGSNERYADSVKGRFTITRDNPKNTLYLQMNSLRVEDTAVYYCVRKGGSILTGFHLDYWGQGTLVTVSS
VL: ELTQSPSSLSASVGDRVTITCRASQGIRDDLGWYQQKPGKAPKRLIYAASNLQSGVPSRFSGGGSGTEFTLTISSLQPEDFATYYCLQHNSYPLTFGGGTKVEIKR
B6: no binding (tested: not given on the sheet) (BSA [8]).

B7: Fab S19 (Fab, V domains shown)
VH: LESGGGVVQPGRSLRLSCAASGFSFSSHGMHWVRQAPGKGLEWVAFIWFDGSNERYADSVKGRFTITRDNPKNTLYLQMNSLRVEDTAVYYCVRRGGSILTGFHLDYWGQGTLVTVSS
VL: ELTQSPSSLSASVGDRVTITCRASQGIRDDLGWYQQKPGKAPKRLIYAASNLQSGVPSRFSGGGSGTEFTLTISSLQPEDFATYYCLQHNSYPLTFGGGTKVEIKR
notes: also called IgG Fab S19
B7: no binding (tested: about 10 µg/ml) (BSA [9]).

B8: Fab S8 HCDR3 mutant Arg95 to Gly (Fab, V domains shown)
VH: LESGGGLVKPGGSLRLSCAASGFTFSSYAMHWVRQAPGKGLEWVAFIWFDGSNERYADSVKGRFTITRDNPKNTLYLQMNSLRVEDTAVYYCVRGGGSILTGFHLDYWGQGTLVTVSS
VL: ELTQSPSSLSASVGDRVTITCRASQGIRDDLGWYQQKPGKAPKRLIYAASNLQSGVPSRFSGGGSGTEFTLTISSLQPEDFATYYCLQHNSYPLTFGGGTKVEIKR
B8: no binding (tested: not given on the sheet) (BSA [7]).

B9: S2095 P (Fab, V domains shown)
VH: LESGGGVVQPGRSLRLSCSASGFSFRDYAMHWVRQAPGKGLEWVAFIWFDGSNERYADSVKGRFTITRDNPKNTLYLQMNSLRVEDTAVYYCVRPGGSILTGFHLDYWGQGTLVTVSS
VL: ELTQSPSSLSASVGDRVTITCRASQGIRDDLGWYQQKPGKAPKRLIYAASNLQSGVPSRFSGGGSGTEFTLTISSLQPEDFATYYCLQHNSYPLTFGGGTKVEIKR
B9: no binding (tested: not given on the sheet) (BSA [8]).
